From the DeepSol protein solubility set

experiment: soluble on expression in E. coli; label from the status in PepcDB or PDB records

Row | Sequence | soluble on expression in E. coli
1 | MGSDKIHHHHHHMMATSAVEKIDYWQASILKEMELSRAQFTHFAFEKHVHLDYHIGVVCHGGQRYHHRGSEYRLTPGNISTLNPDESHNGQSIADGGYEALVMSLPTSYVQQVGGALNQGELYFSTPILDDPKLRAYFIRLHRQLTLHQANITPLEAETLLLGFISELFYRHGKLRNLPSCQARLSGAQLDNIKQQFHQGLDQEFELEQLALSVDLSKFQFLRQFKAATGMTPHAYLKRLRLEYAKKALMRGDSAISTAYDLGFFDQSHFNKAFKRAFLITPAHFQKRVTP | not soluble
2 | MSLKEESLLEYYAQDSFYAEYSSGTGYEIQERALRSTFSRYMKELHKRNVTGGKLLEIGCGFGFLLDEAKNYFDYRIGTDFSSEAVSHAKKYADNVYCGGLEAIPSDTSTKFDCVITFSVLEHVYNPNTFIQEIQNYMAPNGSLVVSTPFIGGMWYKILGKKWSFFIPPEHVCLYNHNSISQLLKQNGFKNIEMFISSHAWPVAGFLSKMGMRKLSSMTLKLKIGDVPLFVPFTIINIIGSKEGHHHHHH | not soluble
3 | MATQHPIGKKTACVVGGTGFVASLLVKLLLQKGYAVNTTVRDPDNQKKVSHLLELQELGDLKIFRADLTDELSFEAPIAGCDFVFHVATPVHFASEDPENDMIKPAIQGVVNVMKACTRAKSVKRVILTSSAAAVTINQLDGTGLVVDEKNWTDIEFLTSAKPPTWGYPASKTLAEKAAWKFAEENNIDLITVIPTLMAGSSLTSDVPSSIGLAMSLITGNEFLINGMKGMQMLSGSVSIAHVEDVCRAHIFVAEKESASGRYICCAANTSVPELAKFLSKRYPQYKVPTDFGDFPPKSKLIISSEKLVKEGFSFKYGIEEIYDESVEYFKAKGLLQN | soluble
4 | MKVELQISETYEEEKLIVQAPQETEKVQKVIEFAENLDQREKIKGKIDDQVYLVEIGKIQRFYIENRKVLAETASQTYSIDLRLYQVLKLLPTNFIQISQSEIINIDSISHLKLTPNGLVEIFLKNESFTYSSRRYLKTIKEKLEL | not soluble
5 | MDLFKIEANYIDIFNKEIYPASIAIANGHIASIEKINATLDEYVLPGFIDAHIHIESSFLVPSNFAHLVVAHGTVATISDPHEIANVNGIDGINFMINNSKKTEFKFFFGAPSCVPALSQEFETSGYVLNDKDIDELMKLDDIYYLAEVMDFKGVINKDIEIINKINSALKRNKVVDGHAPGLSPNLTLKYASSGISTDHECLTIEDARYKLSLGMKILIREGSAAKNFESLHPLISECSKKYCDSLMFCFDDAHPNDILNGHINLIVARAIKHGHDFFDVLKIACINPVLHYKIPVGLLRIGDPADFIITKDIKTFKINKTYINGKLVFNDGISLIPLINEIPINNFNCSKKSISDFKFSTKNKMIPVIKCISNQIITHKTMIDSNLLAPDFQSNIAEDILKIAIINRYKDNSKISIGFIKNFGIRNGAIGSTVAHDSHNIILVGSNDEYLCKAANTIIQNKGGLCALNNEKTIIMELPISGLMSTLSAERVASQYIKLNDFCKNVLGSRLDDPLMTLSFMSLTVVPHLKINDKGLFDVDSFCFVDYLEHHHHHH | not soluble
6 | MITMKDIIKEGHPTLRKVAEPVPLPPSEEDKRILQSLLDYVKMSQDPELAAKYGLRPGIGLAAPQINVSKRMIAVHVTDENGTLYSYALFNPKIVSHSVQQCYLTTGEGCLSVDRDVPGYVLRYARITVTGTTLDGEEVTLRLKGLPAIVFQHEIDHLNGIMFYDRINPADPFQVPDGAIPIGR | soluble
7 | MSTIIDVYAREVLDSRGNPTVEVEVYTESGAFGRAIVPSGASTGEHEAVELRDGDKSRYLGKGVMNAVNNVNEAIAPEIVGFDVTDQAGIDRAMIELDGTPNKGKLGANAILGVSMAVAHAAADFVGLPLYRYLGGFNAKQLPTPMMNIINGGSHADNNVDFQEFMILPVGAPTFKESIRMGAEVFHALKAVLHDKGLNTAVGDEGGFAPNLGSNREALEVIIEAIEKAGYKAGENVFLGMDVASSEFYNKETGKYDLAGEGRTGLTSAEMVDFYEELCKDFPIISIEDGLDENDWDGHKLLTERIGDKVQLVGDDLFVTNTQKLAEGIEKGISNSILIKVNQIGTLTETFEAIEMAKRAGYTAVVSHRSGETEDATIADIAVATNAGQIKTGSMSRTDRIAKYNQLLRIEDELGEIAVYDGIKSFYNIKR | soluble
8 | MYETQVQELSPEEAKRLYDQGVPFFDVREVEEYAQARIPGARLLPLSEFMARYGEIPKDTPVVLYCRTGNRSWQAAAWLSAQGYRVYNLEGGIVRWYRAGLPVDTTPMEAAYRATPYQEVGPEEAKALLEEAFVVDVREAWEYGEGHVPGAVNIPLSTLPQRLAELPKDRPILLVCNSGNRSGVAAEFLVAQGFDGERVYNLEGGTYAWASRGLPLER | soluble
9 | MGQIIVSMYLSLDGVMEEPAWTAPYFNEEVAKFQSDLLFESEALLLGRVTYQGFAAAWPSMTDEEGFADKMNSIPKFVASTTLEKTEWNANLIKGNIVEEISKLKEQPGQNLLIYGSGELIQTLMQHDLIDEYHFMVNPVIVGSGKHLFKTGNDTKALKLIETRTTSSGVVILSYQPEKKE | not soluble
10 | MRRSKMTYLIGVDCGGTHIVGQTWTTAPEHLVQSVTGGPGNVVLDYSAAVTNLTTVLDQLTAAIPASQLGLILIGIAGIETAGRADQVQQTITQRYHANTQVISDAKLALLNGLAGADGALVIAGTGSVVYGRQAGKFLRVGGWGYVLGDEGSAYDISKRALKQVLTQTDNGQTSQLTAPLLAQLKVTDIAAAVQKFYAQDRQTNAQLAQLIAKLAEQQNSEAITVLVTSAQALAQQVVTLYQRFAESWPQRVALSGSVLQHNRLVRDTLTTTVHQSIPTIAFNDITTNNAHAVIYWHRWTQEEINSLEHHHHHH | not soluble
11 | MSLADKRIGILVYDGVLTSDVTAPLEVFGVASRLTWFSDYEVLTISVSDQKTITTEEGLEIGVDAWIGDQPELDVLVLTSSYDMDALIENKDLIHFIQTTSKAADWMASNCSGAYLLAEAGLLNGKKATTWAGGENGLQKDYPAVDVQFNQNFVVDDGVITSNGSLVSYQAALKLLHLMTSESKAQEVADALQYSRFSTEGHHHHHH | soluble
12 | MGSDKIHHHHHHIEGPGTTENLKEFVTVDGKKDTQSGAFYLTTVGIRSATIFSAIKANFSDFQEVMSKKELMGDSSNSEYNRIQQYYMDSSKNAAIEQALKLAKVPYEMKFKGVYVLAMEDNSSFKGKIEVGDTVTGVDGKSFKSSEELMNYIKAQKVNQKVTVQFIQDGKAKEATGKLIELPTDKKAGIGIGLTDHTEIDSSIPVSIEAGDIGGPSAGLMFTLQTYEQLSHKDLRKGHEIAGTGTMNSQGIVGRIGGIDKKVVTASENGAEIFFAPDDEITSEMKKVEPKIKSNYQEAQEAAKKIGTKMKIVPVKTVQDALNYLEKLK | not soluble
13 | YIGSQDTPYTGGLINTFSYKNWELTANLSFNLGGYVRTTPSYNFINFDRGQNVNSDILDRWTPENTDGRLPALITSEKRADEYYWYDQKSEIYKNLDIWVKKLNYFRLQNLRLGYRLPEKMTKSLGMGSASVAIEGRNLLVFGSSYKNFLDPESMYNPYAPPIPKSITFSLNLNF | not soluble
14 | MESSKKTSRSRSTTQEAVRDIKKYIRDNRLRTGDLLPSEAFLCEELGCSRSAIREAIRALVTLDIVEVRHGYGTFVSRMSLEPLINGMVFRTVLDNDTSVENLFYVVDTREILDLSLGEELIEVFTDDDRELLLDLVDKMREHNDQGESFVVEDQKFHRALLARTKNPLIRELNDAFWQIQTEAQPMLNLAMPADIDETIKAHSDIVEALSSGNIDDYRSAVLAHYAPFRRMISNMLDAH | not soluble
15 | MGNYMTYIVGLTGGIGSGKTTIANLFTDLGVPLVDADVVAREVVAKDSPLLSKIVEHFGAQILTEQGELNRAALRERVFNHDEDKLWLNNLLHPAIRERMKQKLAEQTAPYTLFVVPLLIENKLTALCDRILVVDVSPQTQLARSAQRDNNNFEQIQRIMNSQVSQQERLKWADDVINNDAELAQNLPHLQQKVLELHQFYLQQAENKNALEHHHHHH | soluble
16 | MSLAFYIATFDIGTTEVKAALADRDGGLHFQRSIALETYGDGNGPVEQDAGDWYDAVQRIASSWWQSGVDARRVSAIVLSGQMQNFLPLDQDHEPLHRAVLYSDKRPLKEAEEINARHGADNLWSALENPMTAASILPKLVFWRASFPQAFGRLRHVVLGAKDYVVLRLTGRHATDRTNASTTGLYRPKDDAWHVELLADYGFSLDLMPRLLEPGEQVGGVSALAARQTGFVSGTPVLCGLGDAGAATLGVGVLDDEDAYLHLGTTGWLARLTQTDPVGDMPVGTIFRLAGIIAGKTLQVAPVLNAGNILQWALTLVGHRPGEDCAEYFHMAAAEVQGVTVPDGLLFVPYLHAERCPVELPAPRGALLGVTGATTRAQILLAVLEGAALSLRWCAELLGMEKVGLLKVVGGGARSEAWLRMIADNLNVSLLVKPDAHLHPLRGLAALAAVELEWSHSIQDFLREADLREPASNILHPQPCDEGRRRRKFERFKQCVETLGRLDEGHHHHHH | soluble
17 | MRFEEEIGSLQMLCDQFQNKINTLEKQMNEEKKDYVQKLHRLHEKNGEAIDKMKQLDHTMQAVSTKVVHLGDQLESVDQPRSRAHDAHQLMQHFDEFLSDQPLNSMIFTDPDKLLESADLVHKLYSISQELNKDKFANVQARIGQRYKVVEDLLIEEFVRSQRDEKKMAEVAKILSEFKGYSGCVDRYVDFLCQSIHPRGDGGEILADCLQLCRTQQPRISAIFPSPHTVMQKLVLNIFTGRMKETITARLRECKDTDDQEHYLRDLAYLYSSTLKMCKELEKLHISPDSAFLSTLTDSIFQRYIATYCSEELKYLNDQCSNLLQRFYESKKHVKKQIGGGLHELKRDVAARLMNVETYGGETFVAEDVAISILQETKNAFGRANQLCDKEELPRHVENIVDVLLKYLYGEHLDYAVETGLAGISLAESKTEPPAYFFSVVAKCTSVILLMIKQFEDPIFPIIKETIVEPSVAKKWQQSLRSLESKMSLGLERQLNSIVGYVKFLFSEQKKTDFRPDSQQIDIRVSPQCQLASRFLANQVAAMELGCDGENLEALQSDLATRLFKFMLTHIQQFTYNSTGAVLLLCDVGELRTLVSKWRVQNALTQWESLQALTNLLAVLPDQVNETAHSSLLENVDRQLIHDFVRLRTDFRSIKNFQI | not soluble
18 | MGSDKIHHHHHHCRDELSTAGGKWVESSLRTIQTDTCTVRLSTILSDSLATSGDTVCQIGTIDDPVWGKIKAAFYAEYDVPTVSFSENADYRFDSITIRFYSSGNYLGDTLSPQRISLHSLSENLSLDEGYLYTTSKVSYHSTPLASFTFTPTPGETIREHEIRLPDEWGVEWFEHFQAGSREMESQEYFRDYFKGIAFIPEEGGNCVNGFMVNDSSLCITLYYHQTETDATELSADFLPNSDLRFNQVSCDRSRTALSSLQSGLNNGLPSEKSEHQSYLQGLTGMYINIDFPFLNDLRAEGRLVTIESALLRLYPVKGTYGKQYPLPESLTLYTADENNVTEDVVTDISGSSVQTGSLVTDEMMGEDTYYSFDITSFLQSNLGTVGYNRKILQLMLPDNLFFTTLNGVVFGDARHPDSNPVKLTLLYKTYNP | not soluble
19 | MGSDKIHHHHHHMRSLTNAEIAHNRLLNSGLLQSKFSSAEDATRALFGIQSQYQQFGEISLFNRVPNLTKENLQMAYDDKGIIKIWGQRMTIHMYTPDDWFYVHDVYANKNNWLRKHADSLGRDLDEILVQMEELLLREDKVSKESFAALLGNEAKELMTWGGVFIQGSLDGKLFCVPESPKTKFYSHRNQIDSEREDAWITNKRSKTGLETMIDRYFSAFGPATIQDFKHWSGLRNSDYIETLEKLLENYICYIGEDGKNYYSKAKTQENVEMGSPLLLGKFDPLFVSYAKKNWLASEKETSLIWRTAGQIEAVLIINAQFFGTWRYKISGDKIVFQFYLSKKLTKKGQKLVEKEAIKLAEFLLKNYQGSIFEQI | not soluble
20 | GMPKLDLDSIERRIGSVYPGRLNAAMDGRSSLRLGDAGGLSQFGVNLVRLEPGAKSSLRHYHMEQDEFVMVTEGALVLVDDQGEHPMVPGDCAAFPAGDPNGHQFVNRTDAPATFLVVGTRTPTETAYYSDMDMMVKQDASGFAFTRKDGSPLTADQIGDDNE | soluble
